Data taken from the supplement of paper PMC7125110.
± gives the standard error. For some assays here: This sample holds only a part of the variants without activity.

B1: glmS ribozyme (parent)
chain: AUAAAAGCGCCAGAACUACAGAAAUGUAGUUGACGAGGAGGAGGUUUAUCGAAUUUUCGGCGGAUGCCUCCAAA

Tests used:
Settings in all cases: with glucosamine-6-phosphate
glucosamine-6-phosphate [1] = variants of: B1; assay: kcat; higher = faster cleavage; RNA array
In short: (§1)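 On sequenced MiSeq chips, barcoded ribozyme variants were made in situ by E. coli RNA polymerase and followed at 37 °C through a hybridised Cy3 probe. Glucosamine-6-phosphate was flowed in at 40 μM to 10 mM in HEPES/KCl/Mg(OAc)2 buffer. Exponential fits to normalised per-tile medians gave kobs, and weighted Michaelis–Menten fits gave kcat and KM.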

glucosamine-6-phosphate [2] = variants of: B1; assay: KM; higher = weaker cofactor use; RNA array
In short: as §1

glucosamine-6-phosphate [3] = variants of: B1; assay: self-cleavage kobs at 2500 uM GlcN6P; higher = faster cleavage; RNA array
In short: as §1

glucosamine-6-phosphate [4] = variants of: B1; assay: self-cleavage kobs at 10000 uM GlcN6P; higher = faster cleavage; RNA array
In short: as §1

glucosamine-6-phosphate [5] = variants of: B1; assay: self-cleavage kobs at 40 uM GlcN6P; higher = faster cleavage; RNA array
In short: as §1

glucosamine-6-phosphate [6] = variants of: B1; assay: self-cleavage kobs at 160 uM GlcN6P; higher = faster cleavage; RNA array
In short: as §1

glucosamine-6-phosphate [7] = variants of: B1; assay: self-cleavage kobs at 640 uM GlcN6P; higher = faster cleavage; RNA array
In short: as §1

Variant | kcat (glucosamine-6-phosphate [1]) [s⁻¹] | KM (glucosamine-6-phosphate [2]) [µM] | self-cleavage kobs at 2500 uM GlcN6P (glucosamine-6-phosphate [3]) [s⁻¹] | self-cleavage kobs at 10000 uM GlcN6P (glucosamine-6-phosphate [4]) [s⁻¹] | self-cleavage kobs at 40 uM GlcN6P (glucosamine-6-phosphate [5]) [s⁻¹] | self-cleavage kobs at 160 uM GlcN6P (glucosamine-6-phosphate [6]) [s⁻¹] | self-cleavage kobs at 640 uM GlcN6P (glucosamine-6-phosphate [7]) [s⁻¹]
G43U C67U | 5.98e-05 ± 3.8e-06 | 699 ± 280 | 5.2e-05 ± 1.1e-05 | 5.46e-05 ± 7.3e-06 | – | – | –
G43U C67A | 0.00389 ± 0.00036 | 1310 ± 180 | 0.00219 ± 0.00043 | 0.00371 ± 0.0005 | 0.000122 ± 1.7e-05 | 0.000392 ± 8.9e-05 | 0.00129 ± 0.00023
U45C C70G | 0.00245 ± 0.00063 | – | 0.000381 ± 7.3e-05 | 0.001 ± 0.00025 | – | 3.27e-05 ± 1.6e-05 | 8.88e-05 ± 3.7e-05
G44U C67G | 0.0189 ± 0.0043 | 1120 ± 340 | 0.023 ± 0.0048 | 0.0148 ± 0.0022 | 0.00061 ± 6.9e-05 | 0.00226 ± 0.0003 | 0.00865 ± 0.0011
A42U U56G | 0.000177 ± 1.9e-05 | 3910 ± 850 | 7.54e-05 ± 1.2e-05 | 0.000125 ± 1.7e-05 | – | – | 2.06e-05 ± 8.1e-06
U46C A53U U65G | 0.000127 ± 3.1e-05 | 6880 ± 2800 | 3.28e-05 ± 1.2e-05 | 7.63e-05 ± 2.5e-05 | – | – | –
U46C U56C | 0.000648 ± 3.9e-05 | 866 ± 190 | 0.000514 ± 0.00014 | 0.000596 ± 7.5e-05 | – | – | 0.000246 ± 7.8e-05
U46G A52G | 0.00059 ± 3.1e-05 | 6370 ± 650 | 0.000185 ± 9.1e-05 | 0.00036 ± 4.6e-05 | – | – | 5.26e-05 ± 1.6e-05
G44C A53U | 7.99e-05 ± 9.3e-07 | 1170 ± 57 | 5.52e-05 ± 1.4e-05 | 7.13e-05 ± 1.1e-05 | – | – | –
U47A U54A | 0.0235 ± 0.0067 | 1820 ± 700 | 0.0118 ± 0.0025 | 0.0314 ± 0.0084 | 0.000584 ± 0.00012 | 0.00186 ± 0.00037 | 0.00587 ± 0.001
U46G C50U U69A | 3.77e-05 ± 1.1e-05 | – | – | 4.11e-05 ± 1.3e-05 | – | – | –
U46G C68U | 0.00128 ± 0.00018 | 1170 ± 300 | 0.00102 ± 0.00018 | 0.00116 ± 0.00011 | 5.92e-05 ± 9.5e-06 | 0.000148 ± 2.3e-05 | 0.000378 ± 5.2e-05
G44A U45C | 0.000855 ± 6.9e-05 | 2540 ± 420 | 0.000496 ± 0.00011 | 0.000674 ± 6.5e-05 | – | 4.01e-05 ± 1.9e-05 | 0.000171 ± 2.7e-05
G44A U45A | 0.00079 ± 0.0001 | 3190 ± 750 | 0.000439 ± 0.00012 | 0.000579 ± 0.0001 | – | – | 0.000128 ± 4.2e-05
U46A C71G | 0.00042 ± 3.7e-05 | 2020 ± 370 | 0.00025 ± 3.5e-05 | 0.000346 ± 3.2e-05 | – | 4.33e-05 ± 1.2e-05 | 9.39e-05 ± 1.2e-05
U45G U65C | 9.08e-05 ± 1.1e-05 | 3060 ± 1100 | 4.24e-05 ± 1.4e-05 | 6.91e-05 ± 1.3e-05 | – | – | –
U46C A52G | 0.000634 ± 0.00015 | 5990 ± 2100 | 0.000161 ± 3.6e-05 | 0.000412 ± 7e-05 | – | – | 7.1e-05 ± 1.4e-05
U46G A64G | 0.0154 ± 0.0048 | 4300 ± 1900 | 0.00387 ± 0.001 | 0.0119 ± 0.0016 | 0.000157 ± 2.3e-05 | – | 0.00216 ± 0.00079
U46C U69A | 0.000242 ± 4.8e-05 | 686 ± 310 | 0.000199 ± 6.1e-05 | 0.000243 ± 6.5e-05 | – | 5.58e-05 ± 2.2e-05 | 9.77e-05 ± 2.8e-05
G43A A53C | 6.63e-05 ± 3.6e-06 | – | – | – | – | < 1e-05 | < 1e-05
U45G A48G | 2.93e-05 ± 2.6e-06 | 2270 ± 860 | – | – | – | – | –
U46C U54C | 0.00487 ± 0.00041 | 1870 ± 220 | 0.0028 ± 0.00042 | 0.00438 ± 0.0011 | 0.000109 ± 2e-05 | 0.000406 ± 8.6e-05 | 0.00119 ± 0.00012
G43U U54C | 6.24e-05 ± 1.8e-06 | 7100 ± 410 | – | 3.65e-05 ± 1.6e-05 | – | – | –
U46G C67A | 0.00184 ± 0.00032 | 818 ± 220 | 0.00146 ± 0.00022 | 0.00173 ± 0.00021 | 0.000105 ± 1.1e-05 | 0.000224 ± 3.9e-05 | 0.000783 ± 0.0001
U47A C61U | 2.03e-05 ± 6.6e-06 | – | – | – | < 1e-05 | – | –
G43U U46G | 2.88e-05 ± 5.1e-06 | – | – | – | – | – | < 1e-05
U47C | 0.00454 ± 0.0006 | 1380 ± 250 | 0.00412 ± 0.00014 | 0.00375 ± 9.2e-05 | 0.000129 ± 2.6e-06 | 0.000428 ± 1.8e-05 | 0.00142 ± 4.2e-05
U47A | 0.0447 ± 0.0064 | 2150 ± 360 | 0.0201 ± 0.0011 | 0.0412 ± 0.0016 | 0.00084 ± 1.5e-05 | 0.00266 ± 0.00018 | 0.00994 ± 0.00044
G44U U54G | 0.000306 ± 2.6e-05 | 986 ± 200 | 0.000226 ± 4.8e-05 | 0.00027 ± 5.1e-05 | – | – | 0.000127 ± 2.2e-05
U47A C70G | 0.000131 ± 1.7e-05 | – | – | 0.000128 ± 2.5e-05 | – | 9.75e-05 ± 2.2e-05 | 0.00011 ± 1.3e-05
